Data as given in the supplement of paper PMC10567573.

B1: TRIM43 (parent)
chain: FCDMDKSLLCLLCSNSQEHGAHKH

Variants of: B1
Experiment: protein stability index of a GFP-peptide fusion (GPS, HEK-293T) (PSI 1-6); higher = more stable
Details: c terminus: a fixed tail appended
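Note: lentivirally expressed fusions sorted by FACS into six bins by GFP to DsRed ratio, PSI derived from sequencing read proportions per bin multiplied by bin number.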

Compared with FCDMDKSLLCLLCSNHQEHGAHKH [S16H], FCDMDKSLLCLLCSNIQEHGAHKH [S16I] is lower in protein stability index: 2 for the first, 1.57 for the second.

Compared with FCDMDKSLLCLLCSNKQEHGAHKH [S16K], FCDMDKSLLCLLCSNLQEHGAHKH [S16L] is higher in protein stability index: 2.04 for the first, 2.15 for the second.

Compared with FCDMDKSLLCLLCSNMQEHGAHKH [S16M], FCDMDKSLLCLLCSNNQEHGAHKH [S16N] is lower in protein stability index: 2.3 for the first, 2.06 for the second.

Compared with FCDMDKSLLCLLCSNPQEHGAHKH [S16P], FCDMDKSLLCLLCSNQQEHGAHKH [S16Q] is lower in protein stability index: 2.65 for the first, 2.13 for the second.

Going from FCDMDKSLLCLLCSNRQEHGAHKH [S16R] to FCDMDKSLLCLLCSNTQEHGAHKH [S16T], the protein stability index falls from 2.12 to 2.07.

Compared with FCDMDKSLLCLLCSNVQEHGAHKH [S16V], FCDMDKSLLCLLCSNWQEHGAHKH [S16W] is lower in protein stability index: 2.23 for the first, 1.75 for the second.

Compared with FCDMDKSLLCLLCSNYQEHGAHKH [S16Y], FCDMDKSLLCLLCSNSAEHGAHKH [Q17A] is higher in protein stability index: 1.79 for the first, 1.85 for the second.

Compared with FCDMDKSLLCLLCSNSCEHGAHKH [Q17C], FCDMDKSLLCLLCSNSDEHGAHKH [Q17D] is lower in protein stability index: 2.22 for the first, 1.78 for the second.

Compared with FCDMDKSLLCLLCSNSEEHGAHKH [Q17E], FCDMDKSLLCLLCSNSFEHGAHKH [Q17F] is lower in protein stability index: 2.1 for the first, 2.05 for the second.

Going from FCDMDKSLLCLLCSNSGEHGAHKH [Q17G] to FCDMDKSLLCLLCSNSHEHGAHKH [Q17H], the protein stability index falls from 1.84 to 1.76.

First: FCDMDKSLLCLLCSNSIEHGAHKH [Q17I]
Second: FCDMDKSLLCLLCSNSKEHGAHKH [Q17K]
The protein stability index of the first is lower: 1.78 for the first, 2.13 for the second.

First: FCDMDKSLLCLLCSNSLEHGAHKH [Q17L]
Second: FCDMDKSLLCLLCSNSMEHGAHKH [Q17M]
The protein stability index of the first is higher: 1.63 for the first, 1.58 for the second.

Going from FCDMDKSLLCLLCSNSNEHGAHKH [Q17N] to FCDMDKSLLCLLCSNSPEHGAHKH [Q17P], the protein stability index rises from 1.51 to 1.7.

First: FCDMDKSLLCLLCSNSREHGAHKH [Q17R]
Second: FCDMDKSLLCLLCSNSSEHGAHKH [Q17S]
The protein stability index of the first is higher: 1.6 for the first, 1.55 for the second.

Compared with FCDMDKSLLCLLCSNSTEHGAHKH [Q17T], FCDMDKSLLCLLCSNSVEHGAHKH [Q17V] is higher in protein stability index: 1.61 for the first, 1.67 for the second.

Compared with FCDMDKSLLCLLCSNSWEHGAHKH [Q17W], FCDMDKSLLCLLCSNSYEHGAHKH [Q17Y] is higher in protein stability index: 1.74 for the first, 2.19 for the second.

First: FCDMDKSLLCLLCSNSQAHGAHKH [E18A]
Second: FCDMDKSLLCLLCSNSQCHGAHKH [E18C]
The protein stability index of the first is lower: 2.12 for the first, 2.3 for the second.

Compared with FCDMDKSLLCLLCSNSQDHGAHKH [E18D], FCDMDKSLLCLLCSNSQFHGAHKH [E18F] is lower in protein stability index: 2.11 for the first, 1.75 for the second.

Compared with FCDMDKSLLCLLCSNSQGHGAHKH [E18G], FCDMDKSLLCLLCSNSQHHGAHKH [E18H] is higher in protein stability index: 1.78 for the first, 1.81 for the second.

First: FCDMDKSLLCLLCSNSQIHGAHKH [E18I]
Second: FCDMDKSLLCLLCSNSQKHGAHKH [E18K]
The protein stability index of the first is lower: 1.4 for the first, 1.86 for the second.

Going from FCDMDKSLLCLLCSNSQLHGAHKH [E18L] to FCDMDKSLLCLLCSNSQMHGAHKH [E18M], the protein stability index rises from 1.7 to 1.83.

Compared with FCDMDKSLLCLLCSNSQNHGAHKH [E18N], FCDMDKSLLCLLCSNSQPHGAHKH [E18P] is lower in protein stability index: 1.87 for the first, 1.83 for the second.

Compared with FCDMDKSLLCLLCSNSQQHGAHKH [E18Q], FCDMDKSLLCLLCSNSQRHGAHKH [E18R] is lower in protein stability index: 1.93 for the first, 1.86 for the second.

First: FCDMDKSLLCLLCSNSQSHGAHKH [E18S]
Second: FCDMDKSLLCLLCSNSQTHGAHKH [E18T]
The protein stability index of the first is lower: 1.63 for the first, 1.68 for the second.

Compared with FCDMDKSLLCLLCSNSQVHGAHKH [E18V], FCDMDKSLLCLLCSNSQWHGAHKH [E18W] is lower in protein stability index: 2.28 for the first, 1.98 for the second.

Going from FCDMDKSLLCLLCSNSQYHGAHKH [E18Y] to FCDMDKSLLCLLCSNSQEAGAHKH [H19A], the protein stability index rises from 1.71 to 1.91.

Going from FCDMDKSLLCLLCSNSQECGAHKH [H19C] to FCDMDKSLLCLLCSNSQEDGAHKH [H19D], the protein stability index rises from 2.03 to 2.38.

First: FCDMDKSLLCLLCSNSQEEGAHKH [H19E]
Second: FCDMDKSLLCLLCSNSQEFGAHKH [H19F]
The protein stability index of the first is higher: 1.98 for the first, 1.67 for the second.

Going from FCDMDKSLLCLLCSNSQEGGAHKH [H19G] to FCDMDKSLLCLLCSNSQEIGAHKH [H19I], the protein stability index falls from 2.18 to 1.87.

Going from FCDMDKSLLCLLCSNSQEKGAHKH [H19K] to FCDMDKSLLCLLCSNSQELGAHKH [H19L], the protein stability index falls from 2.11 to 1.42.

Going from FCDMDKSLLCLLCSNSQEMGAHKH [H19M] to FCDMDKSLLCLLCSNSQENGAHKH [H19N], the protein stability index falls from 2.03 to 1.75.

Compared with FCDMDKSLLCLLCSNSQEPGAHKH [H19P], FCDMDKSLLCLLCSNSQEQGAHKH [H19Q] is lower in protein stability index: 2.05 for the first, 1.41 for the second.

First: FCDMDKSLLCLLCSNSQERGAHKH [H19R]
Second: FCDMDKSLLCLLCSNSQESGAHKH [H19S]
The protein stability index of the first is higher: 2.03 for the first, 2.01 for the second.

Compared with FCDMDKSLLCLLCSNSQETGAHKH [H19T], FCDMDKSLLCLLCSNSQEVGAHKH [H19V] is lower in protein stability index: 1.83 for the first, 1.59 for the second.

Going from FCDMDKSLLCLLCSNSQEWGAHKH [H19W] to FCDMDKSLLCLLCSNSQEYGAHKH [H19Y], the protein stability index rises from 1.51 to 1.91.

Compared with FCDMDKSLLCLLCSNSQEHAAHKH [G20A], FCDMDKSLLCLLCSNSQEHCAHKH [G20C] is higher in protein stability index: 1.89 for the first, 2.59 for the second.

First: FCDMDKSLLCLLCSNSQEHDAHKH [G20D]
Second: FCDMDKSLLCLLCSNSQEHEAHKH [G20E]
The protein stability index of the first is lower: 2.19 for the first, 2.36 for the second.

Compared with FCDMDKSLLCLLCSNSQEHFAHKH [G20F], FCDMDKSLLCLLCSNSQEHHAHKH [G20H] is higher in protein stability index: 1.67 for the first, 1.92 for the second.

Going from FCDMDKSLLCLLCSNSQEHIAHKH [G20I] to FCDMDKSLLCLLCSNSQEHKAHKH [G20K], the protein stability index rises from 1.66 to 1.93.

Going from FCDMDKSLLCLLCSNSQEHLAHKH [G20L] to FCDMDKSLLCLLCSNSQEHMAHKH [G20M], the protein stability index falls from 1.74 to 1.47.

Compared with FCDMDKSLLCLLCSNSQEHNAHKH [G20N], FCDMDKSLLCLLCSNSQEHPAHKH [G20P] is higher in protein stability index: 2.03 for the first, 2.27 for the second.

Compared with FCDMDKSLLCLLCSNSQEHQAHKH [G20Q], FCDMDKSLLCLLCSNSQEHRAHKH [G20R] is lower in protein stability index: 1.95 for the first, 1.9 for the second.

Compared with FCDMDKSLLCLLCSNSQEHSAHKH [G20S], FCDMDKSLLCLLCSNSQEHTAHKH [G20T] is higher in protein stability index: 1.99 for the first, 2.12 for the second.

First: FCDMDKSLLCLLCSNSQEHVAHKH [G20V]
Second: FCDMDKSLLCLLCSNSQEHWAHKH [G20W]
The protein stability index of the first is higher: 2.35 for the first, 1.56 for the second.

Compared with FCDMDKSLLCLLCSNSQEHYAHKH [G20Y], FCDMDKSLLCLLCSNSQEHGCHKH [A21C] is higher in protein stability index: 2.28 for the first, 2.38 for the second.

First: FCDMDKSLLCLLCSNSQEHGDHKH [A21D]
Second: FCDMDKSLLCLLCSNSQEHGEHKH [A21E]
The protein stability index of the first is higher: 2.08 for the first, 1.83 for the second.

Compared with FCDMDKSLLCLLCSNSQEHGFHKH [A21F], FCDMDKSLLCLLCSNSQEHGGHKH [A21G] is higher in protein stability index: 2.1 for the first, 2.26 for the second.
